# Molecular target: receptor binding domain (RBD) of the SARS-CoV-2 spike protein (residues 319-541) (SARS-CoV-2) (UniProt P0DTC2)
# Test: SPR
substance,measurement,value
"wild-type sACE2-Fc (soluble ACE2, residues 1-615, fused to human IgG Fc) (from UniProt Q9BYF1 18-615) (Fc fusion)",Kd,23.2 nM
